Protease Inhibition (% of WT); Protease Mixtures, IGD Substrate data for 5 molecules are collected here from US20230250154A1.

Positions count from the first letter of the chain named. Names may count otherwise.

B1: Variant A2M, bait region SEQ ID NO 143, P01023 24-1474 (protein)
chain: SVSGKPQYMVLVPSLLHTETTEKGCVLLSYLNETVTVSASLESVRGNRSLFTDLEAENDVLHCVAFAVPKSSSNEEVMFLTVQVKGPTQEFKKRTTVMVKNEDSLVFVQTDKSIYKPGQTVKFRVVSMDENFHPLNELIPLVYIQDPKGNRIAQWQSFQLEGGLKQFSFPLSSEPFQGSYKVVVQKKSGGRTEHPFTVEEFVLPKFEVQVTVPKIITILEEEMNVSVCGLYTYGKPVPGHVTVSICRKYSDASDCHGEDSQAFCEKFSGQLNSHGCFYQQVKTKVFQLKRKEYEMKLHTEAQIQEEGTVVELTGRQSSEITRTITKLSFVKVDSHFRQGIPFFGQVRLVDGKGVPIPNKVIFIRGNEANYYSNATTDEHGLVQFSINTTNVMGTSLTVRVNYKDRSPCYGYQWVSEEHEEAHHTAYLVFSPSKSFVHLEPMSHELPCGHTQTVQAHYILNGGTLLGLKKLSFYYLIMAKGGIVRTGTHGLLVKQEDMKGHFSISIPVKSDIAPVARLLIYAVLPTGDVIGDSAKYDVENCLANKVDLSFSPSQSLPASHAHLRVTAAPQSVCALRAVDQSVLLMKPDAELSASSVYNLLPEKDLTGFPGPLNDQDDEDCINRHNVYINGITYTPVSSTNEKDMYSFLEDMGLKAFTNSKIRKPKMCPQLEQYEMHGPIPENFFGVSEDLVVQIEGEGEGEGEAIPMSIPTEPHTKLRKYFPETWIWDLVVVNSAGVAEVGVTVPDTITEWKAGAFCLSEDAGLGISSTASLRAFQPFFVELTMPYSVIRGEAFTLKATVLNYLPKCIRVSVQLEASPAFLAVPVEKEQAPHCICANGRQTVSWAVTPKSLGNVNFTVSAEALESQELCGTEVPSVPEHGRKDTVIKPLLVEPEGLEKETTFNSLLCPSGGEVSEELSLKLPPNVVEESARASVSVLGDILGSAMQNTQNLLQMPYGCGEQNMVLFAPNIYVLDYLNETQQLTPEIKSKAIGYLNTGYQRQLNYKHYDGSYSTFGERYGRNQGNTWLTAFVLKTFAQARAYIFIDEAHITQALIWLSQRQKDNGCFRSSGSLLNNAIKGGVEDEVTLSAYITIALLEIPLTVTHPVVRNALFCLESAWKTAQEGDHGSHVYTKALLAYAFALAGNQDKRKEVLKSLNEEAVKKDNSVHWERPQKPKAPVGHFYEPQAPSAEVEMTSYVLLAYLTAQPAPTSEDLTSATNIVKWITKQQNAQGGFSSTQDTVVALHALSKYGAATFTRTGKAAQVTIQSSGTFSSKFQVDNNNRLLLQQVSLPELPGEYSMKVTGEGCVYLQTSLKYNILPEKEEFPFALGVQTLPQTCDEPKAHTSFQISLSVSYTGSRSASNMAIVDVKMVSGFIPLKPTVKMLERSNHVSRTEVSSNHVLIYLDKVSNQTLSLFFTVLQDVPVRDLKPAIVKVYDYYETDEFAIAEYNAPCSKDLGNADYKDDDDKGASHHHHHH
B2: Variant A2M, bait region SEQ ID NO 142, P01023 24-1474 (protein)
chain: SVSGKPQYMVLVPSLLHTETTEKGCVLLSYLNETVTVSASLESVRGNRSLFTDLEAENDVLHCVAFAVPKSSSNEEVMFLTVQVKGPTQEFKKRTTVMVKNEDSLVFVQTDKSIYKPGQTVKFRVVSMDENFHPLNELIPLVYIQDPKGNRIAQWQSFQLEGGLKQFSFPLSSEPFQGSYKVVVQKKSGGRTEHPFTVEEFVLPKFEVQVTVPKIITILEEEMNVSVCGLYTYGKPVPGHVTVSICRKYSDASDCHGEDSQAFCEKFSGQLNSHGCFYQQVKTKVFQLKRKEYEMKLHTEAQIQEEGTVVELTGRQSSEITRTITKLSFVKVDSHFRQGIPFFGQVRLVDGKGVPIPNKVIFIRGNEANYYSNATTDEHGLVQFSINTTNVMGTSLTVRVNYKDRSPCYGYQWVSEEHEEAHHTAYLVFSPSKSFVHLEPMSHELPCGHTQTVQAHYILNGGTLLGLKKLSFYYLIMAKGGIVRTGTHGLLVKQEDMKGHFSISIPVKSDIAPVARLLIYAVLPTGDVIGDSAKYDVENCLANKVDLSFSPSQSLPASHAHLRVTAAPQSVCALRAVDQSVLLMKPDAELSASSVYNLLPEKDLTGFPGPLNDQDDEDCINRHNVYINGITYTPVSSTNEKDMYSFLEDMGLKAFTNSKIRKPKMCPQLEQYEMHGPSELEGRGSIPENFFGVEGEGEGEGKEEEGLGSVEEPHTKLRKYFPETWIWDLVVVNSAGVAEVGVTVPDTITEWKAGAFCLSEDAGLGISSTASLRAFQPFFVELTMPYSVIRGEAFTLKATVLNYLPKCIRVSVQLEASPAFLAVPVEKEQAPHCICANGRQTVSWAVTPKSLGNVNFTVSAEALESQELCGTEVPSVPEHGRKDTVIKPLLVEPEGLEKETTFNSLLCPSGGEVSEELSLKLPPNVVEESARASVSVLGDILGSAMQNTQNLLQMPYGCGEQNMVLFAPNIYVLDYLNETQQLTPEIKSKAIGYLNTGYQRQLNYKHYDGSYSTFGERYGRNQGNTWLTAFVLKTFAQARAYIFIDEAHITQALIWLSQRQKDNGCFRSSGSLLNNAIKGGVEDEVTLSAYITIALLEIPLTVTHPVVRNALFCLESAWKTAQEGDHGSHVYTKALLAYAFALAGNQDKRKEVLKSLNEEAVKKDNSVHWERPQKPKAPVGHFYEPQAPSAEVEMTSYVLLAYLTAQPAPTSEDLTSATNIVKWITKQQNAQGGFSSTQDTVVALHALSKYGAATFTRTGKAAQVTIQSSGTFSSKFQVDNNNRLLLQQVSLPELPGEYSMKVTGEGCVYLQTSLKYNILPEKEEFPFALGVQTLPQTCDEPKAHTSFQISLSVSYTGSRSASNMAIVDVKMVSGFIPLKPTVKMLERSNHVSRTEVSSNHVLIYLDKVSNQTLSLFFTVLQDVPVRDLKPAIVKVYDYYETDEFAIAEYNAPCSKDLGNADYKDDDDKGASHHHHHH
B3: Variant A2M, bait region SEQ ID NO 137, P01023 24-1474 (protein)
chain: SVSGKPQYMVLVPSLLHTETTEKGCVLLSYLNETVTVSASLESVRGNRSLFTDLEAENDVLHCVAFAVPKSSSNEEVMFLTVQVKGPTQEFKKRTTVMVKNEDSLVFVQTDKSIYKPGQTVKFRVVSMDENFHPLNELIPLVYIQDPKGNRIAQWQSFQLEGGLKQFSFPLSSEPFQGSYKVVVQKKSGGRTEHPFTVEEFVLPKFEVQVTVPKIITILEEEMNVSVCGLYTYGKPVPGHVTVSICRKYSDASDCHGEDSQAFCEKFSGQLNSHGCFYQQVKTKVFQLKRKEYEMKLHTEAQIQEEGTVVELTGRQSSEITRTITKLSFVKVDSHFRQGIPFFGQVRLVDGKGVPIPNKVIFIRGNEANYYSNATTDEHGLVQFSINTTNVMGTSLTVRVNYKDRSPCYGYQWVSEEHEEAHHTAYLVFSPSKSFVHLEPMSHELPCGHTQTVQAHYILNGGTLLGLKKLSFYYLIMAKGGIVRTGTHGLLVKQEDMKGHFSISIPVKSDIAPVARLLIYAVLPTGDVIGDSAKYDVENCLANKVDLSFSPSQSLPASHAHLRVTAAPQSVCALRAVDQSVLLMKPDAELSASSVYNLLPEKDLTGFPGPLNDQDDEDCINRHNVYINGITYTPVSSTNEKDMYSFLEDMGLKAFTNSKIRKPKMCPQLEQYEMHGPSEDLVVQIKEEEGLGSIPENFFGVSELEGRGSVEEPHTKLRKYFPETWIWDLVVVNSAGVAEVGVTVPDTITEWKAGAFCLSEDAGLGISSTASLRAFQPFFVELTMPYSVIRGEAFTLKATVLNYLPKCIRVSVQLEASPAFLAVPVEKEQAPHCICANGRQTVSWAVTPKSLGNVNFTVSAEALESQELCGTEVPSVPEHGRKDTVIKPLLVEPEGLEKETTFNSLLCPSGGEVSEELSLKLPPNVVEESARASVSVLGDILGSAMQNTQNLLQMPYGCGEQNMVLFAPNIYVLDYLNETQQLTPEIKSKAIGYLNTGYQRQLNYKHYDGSYSTFGERYGRNQGNTWLTAFVLKTFAQARAYIFIDEAHITQALIWLSQRQKDNGCFRSSGSLLNNAIKGGVEDEVTLSAYITIALLEIPLTVTHPVVRNALFCLESAWKTAQEGDHGSHVYTKALLAYAFALAGNQDKRKEVLKSLNEEAVKKDNSVHWERPQKPKAPVGHFYEPQAPSAEVEMTSYVLLAYLTAQPAPTSEDLTSATNIVKWITKQQNAQGGFSSTQDTVVALHALSKYGAATFTRTGKAAQVTIQSSGTFSSKFQVDNNNRLLLQQVSLPELPGEYSMKVTGEGCVYLQTSLKYNILPEKEEFPFALGVQTLPQTCDEPKAHTSFQISLSVSYTGSRSASNMAIVDVKMVSGFIPLKPTVKMLERSNHVSRTEVSSNHVLIYLDKVSNQTLSLFFTVLQDVPVRDLKPAIVKVYDYYETDEFAIAEYNAPCSKDLGNADYKDDDDKGASHHHHHH
B4: Variant A2M, bait region SEQ ID NO 138, P01023 24-1474 (protein)
chain: B3 chain with K686E, E687G, E689G, G690E, L691G, G692E, S693G, S702K, L704E, R707L
B5: Variant A2M, bait region SEQ ID NO 139, P01023 24-1474 (protein)
chain: SVSGKPQYMVLVPSLLHTETTEKGCVLLSYLNETVTVSASLESVRGNRSLFTDLEAENDVLHCVAFAVPKSSSNEEVMFLTVQVKGPTQEFKKRTTVMVKNEDSLVFVQTDKSIYKPGQTVKFRVVSMDENFHPLNELIPLVYIQDPKGNRIAQWQSFQLEGGLKQFSFPLSSEPFQGSYKVVVQKKSGGRTEHPFTVEEFVLPKFEVQVTVPKIITILEEEMNVSVCGLYTYGKPVPGHVTVSICRKYSDASDCHGEDSQAFCEKFSGQLNSHGCFYQQVKTKVFQLKRKEYEMKLHTEAQIQEEGTVVELTGRQSSEITRTITKLSFVKVDSHFRQGIPFFGQVRLVDGKGVPIPNKVIFIRGNEANYYSNATTDEHGLVQFSINTTNVMGTSLTVRVNYKDRSPCYGYQWVSEEHEEAHHTAYLVFSPSKSFVHLEPMSHELPCGHTQTVQAHYILNGGTLLGLKKLSFYYLIMAKGGIVRTGTHGLLVKQEDMKGHFSISIPVKSDIAPVARLLIYAVLPTGDVIGDSAKYDVENCLANKVDLSFSPSQSLPASHAHLRVTAAPQSVCALRAVDQSVLLMKPDAELSASSVYNLLPEKDLTGFPGPLNDQDDEDCINRHNVYINGITYTPVSSTNEKDMYSFLEDMGLKAFTNSKIRKPKMCPQLEQYEMHGPSEDLVVQIEGEGEGEGIPENFFGVEAIPMSIPTEPHTKLRKYFPETWIWDLVVVNSAGVAEVGVTVPDTITEWKAGAFCLSEDAGLGISSTASLRAFQPFFVELTMPYSVIRGEAFTLKATVLNYLPKCIRVSVQLEASPAFLAVPVEKEQAPHCICANGRQTVSWAVTPKSLGNVNFTVSAEALESQELCGTEVPSVPEHGRKDTVIKPLLVEPEGLEKETTFNSLLCPSGGEVSEELSLKLPPNVVEESARASVSVLGDILGSAMQNTQNLLQMPYGCGEQNMVLFAPNIYVLDYLNETQQLTPEIKSKAIGYLNTGYQRQLNYKHYDGSYSTFGERYGRNQGNTWLTAFVLKTFAQARAYIFIDEAHITQALIWLSQRQKDNGCFRSSGSLLNNAIKGGVEDEVTLSAYITIALLEIPLTVTHPVVRNALFCLESAWKTAQEGDHGSHVYTKALLAYAFALAGNQDKRKEVLKSLNEEAVKKDNSVHWERPQKPKAPVGHFYEPQAPSAEVEMTSYVLLAYLTAQPAPTSEDLTSATNIVKWITKQQNAQGGFSSTQDTVVALHALSKYGAATFTRTGKAAQVTIQSSGTFSSKFQVDNNNRLLLQQVSLPELPGEYSMKVTGEGCVYLQTSLKYNILPEKEEFPFALGVQTLPQTCDEPKAHTSFQISLSVSYTGSRSASNMAIVDVKMVSGFIPLKPTVKMLERSNHVSRTEVSSNHVLIYLDKVSNQTLSLFFTVLQDVPVRDLKPAIVKVYDYYETDEFAIAEYNAPCSKDLGNADYKDDDDKGASHHHHHH

The experiment deals with Protease Mixtures. The experiment can be described thus: cell-based or functional assay.
As to B1, the Protease Inhibition (% of WT); Protease Mixtures, IGD Substrate is 110 % of WT.

For B2, the Protease Inhibition (% of WT); Protease Mixtures, IGD Substrate was 140 % of WT.

As to B3, the Protease Inhibition (% of WT); Protease Mixtures, IGD Substrate was 140 % of WT.

Regarding B4, the Protease Inhibition (% of WT); Protease Mixtures, IGD Substrate is 210 % of WT. As for B5, the figure is 190 % of WT.
